Earlier results in PMC9797105.

Legend:
TARP γ-8 PBM = TARP γ-8 PBM (UniProt Q8WXS5)
[1] = target: TRP channel PBM (Drosophila melanogaster) (UniProt P19334)

Sequence of UniProt Q8WXS5 (Q8WXS5 whole entry, looked up): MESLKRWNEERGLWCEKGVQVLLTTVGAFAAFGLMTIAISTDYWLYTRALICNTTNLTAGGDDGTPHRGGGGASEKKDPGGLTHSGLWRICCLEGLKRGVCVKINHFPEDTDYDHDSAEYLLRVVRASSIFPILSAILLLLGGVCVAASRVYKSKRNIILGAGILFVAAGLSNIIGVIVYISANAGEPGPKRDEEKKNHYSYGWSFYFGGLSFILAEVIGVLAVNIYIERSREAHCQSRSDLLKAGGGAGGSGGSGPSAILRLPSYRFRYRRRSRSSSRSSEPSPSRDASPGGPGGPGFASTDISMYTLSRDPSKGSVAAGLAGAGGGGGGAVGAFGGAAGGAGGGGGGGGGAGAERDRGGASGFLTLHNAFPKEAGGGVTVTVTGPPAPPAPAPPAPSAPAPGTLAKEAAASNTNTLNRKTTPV

| Substance | Kd (TARP γ-8 PBM) | Kd [1] |
| --- | --- | --- |
| PSD-95 PDZ2 (from UniProt P78352) | 40 µM | – |
| INAD PDZ3 (from UniProt Q24008) | – | 130 nM |
